The term IC50 denotes the point on the concentration scale where inhibition reaches its midpoint. A higher IC50 goes with weaker potency in that assay. By IC80 is commonly meant the concentration needed for an effect of 80%. Higher therefore signals a need for much substance. As usually defined, the IC90 is the concentration at which the effect reaches the 90% level. High values mean weaker potency, low ones greater potency. The term IC95 denotes the point of the concentration-response curve where the effect stands at 95%. The low end stands for greater potency, the high end for weaker potency.

What all share (assay): cell-based or functional assay
The target of experiment [1] is HIV-1 MGRM-F1-014 Env (pseudovirus) (HIV-1).
Experiment [2] addresses HIV-1 Env of pseudovirus TRJ0.58 (Acute), clade B (HIV-1).
The target in experiment [3] is HIV-1 MGRM-C-010 Env (HIV-1).
For experiment [4], the target named is HIV-1 MGRM-C-017 Env (HIV-1).
Experiment [5] has as its target HIV-1 Env of isolate 92UG001 (clade D) (HIV-1).
Experiment [6] deals with HIV-1 Env of isolate MGRM-D-002 (clade D) (HIV-1).
For experiment [7], the target named is HIV-1 Env of isolate MGRM-F1-016 (HIV-1).
The target in experiment [8] is HIV-1 Env of isolate MGRM-D-011 (HIV-1).
The target of experiment [9] is HIV-1 93IN905 envelope glycoprotein (Env) on pseudovirus (HIV-1).
Experiment [10] has as its target HIV-1 APV6 envelope glycoprotein (Env) on pseudovirus (HIV-1).
The target in experiment [11] is HIV-1 MGRM-F1-018 Env (pseudovirus) (HIV-1).
Experiment [12] concerns the target HIV-1 APV-6 envelope protein (Env) on pseudovirus (HIV-1).
Experiment [13] has as its target HIV-1 Env of isolate MGRM-D-002 (HIV-1).
Experiment [14] concerns the target HIV-1 93RW029 envelope glycoprotein (Env) (HIV-1).
Experiment [15] has as its target HIV-1 MGRM-C-012 Env (HIV-1).
Experiment [16] addresses HIV-1 Env of isolate MGRM-D-008 (clade D) (HIV-1).
The target of experiment [17] is HIV-1 Env of isolate MG RM-D-022 (subtype D) (HIV-1).
Experiment [18] deals with HIV-1 SF162 Env (pseudovirus) (HIV-1) (UniProt P19550).
Experiment [19] deals with HIV-1 Env of isolate MGRM-C-005 (pseudovirus) (HIV-1 isolate MGRM-C-005, subtype C).
Experiment [20] has as its target HIV-1 Env of isolate MGRM-C-008 (pseudovirus) (HIV-1 isolate MGRM-C-008, subtype C).
Experiment [21] addresses HIV-1 92BR020 Env (pseudovirus) (HIV-1).
Experiment [22] concerns the target HIV-1 Env of isolate MGRM-F1-021 (HIV-1).
Experiment [23] deals with HIV-1 Env of isolate MGRM-C-025 (pseudovirus) (HIV-1 isolate MGRM-C-025, subtype C).
For experiment [24], the target named is HIV-1 Env of isolate MG RM-D-002 (subtype D) (HIV-1).
Experiment [25] has as its target HIV-1 Env of isolate MGRM-C-017 (pseudovirus) (HIV-1 isolate MGRM-C-017, subtype C).
In experiment [26] the target is HIV-1 Env of isolate QH0692.42 (HIV-1).
Experiment [27] has as its target HIV-1 Env of isolate MGRM-AG-006 (CRF_AG), on pseudovirus (HIV-1).
Experiment [28] addresses HIV-1 Env of isolate NL43 (HIV-1).
Experiment [29] concerns the target HIV-1 Env of isolate MGRM-AE-001 (CRF01_AE), on pseudovirus (HIV-1).
Experiment [30] addresses HIV-1 Env of isolate MGRM-F1-018 (subtype F), on pseudovirus (HIV-1).
Experiment [31] addresses HIV-1 Env of isolate MGRM-A-008 (clade A), on pseudovirus (HIV-1).
Experiment [32] concerns the target HIV-1 Env of isolate MGRM-F1-013 (subtype F), on pseudovirus (HIV-1).
The target in experiment [33] is HIV-1 Env of isolate 92UG005 (HIV-1).
Experiment [34] addresses HIV-1 Env of isolate MGRM-A-009 (clade A), on pseudovirus (HIV-1).
Experiment [35] concerns the target HIV-1 Env of isolate JRCSF (HIV-1) (UniProt P20871).
Experiment [36] has as its target HIV-1 Env of isolate MGRM-F1-012 (subtype F), on pseudovirus (HIV-1).
Experiment [37] concerns the target HIV-1 Env of isolate MGRM-F1-004 (subtype F), on pseudovirus (HIV-1).

Take 1496_C09 (PG9) (TCN-109) (antibody): the IC50 (µg/ml), pseudovirus neutralization in [1] came to 0.01 µg/mL; in experiment [2] it was 0.43 µg/mL; in experiment [5] it was 41.8 µg/mL; in experiment [6], 0.027 µg/mL; in experiment [11], 0.03 µg/mL; in [14], 1.19 µg/mL. The substance also had an IC50 (µg/ml), pseudovirus neutralization in experiment [16] of 6.86 µg/mL. Also, the IC50 in experiment [3] came out at 12.4 µg/mL; in experiment [4] it was 1.52 µg/mL; in experiment [15], 0.24 µg/mL. The IC50 (µg/mL), pseudovirus neutralization in experiment [7] came out at 0.518 µg/mL; in [8], 0.071 µg/mL; in experiment [13] it was 0.021 µg/mL. Moreover, the IC50 (ug/ml), neutralizing activity came to 0.048 µg/mL in experiment [9] and 0.214 µg/mL in experiment [10]. For the same substance, the IC50 neutralization is 0.048 µg/mL in [9] and 0.214 µg/mL in [10]. Moreover, the IC80, neutralization in experiment [9] was determined as 0.308 µg/mL; in experiment [10], 1.13 µg/mL. The substance further displayed an IC90 (pseudovirus neutralization) in experiment [9] of 1.89 µg/mL. The IC90, neutralization in [9] was determined as 0.981 µg/mL; in experiment [10] it was 3.21 µg/mL. Besides, the IC95, neutralization came out at 3.31 µg/mL in experiment [9] and 9.65 µg/mL in experiment [10]. In experiment [12], this substance returned a neutralization IC50 of 0.0869 µg/mL.

Regarding 4838_L06 (PGT-121) (antibody), the IC50 (µg/mL), pseudovirus neutralization in experiment [17] is greater than 50 µg/mL; in [24], 0.006 µg/mL. Besides, the IC50, pseudovirus neutralization in [18] came out at 0.005 µg/mL. Besides, the IC50 (µg/mL) neutralization in experiment [19] worked out at 0.015 µg/mL; in experiment [20] it was 0.012 µg/mL; in experiment [23], 46.8 µg/mL; in experiment [25], 0.009 µg/mL. For the same substance, the neutralization IC80 in [21] turned out to be 0.0532 µg/mL. The same substance gave a neutralization IC90 in experiment [21] of 0.101 µg/mL. Also, the results for the IC50 in experiment [7] and in experiment [22] were 0.931 µg/mL and 0.099 µg/mL, respectively.

With 4858_P08 (PGT-123) (antibody), the IC50 (µg/mL), pseudovirus neutralization was greater than 50 µg/mL in experiment [17] and 0.012 µg/mL in experiment [24]. Further, the IC50, pseudovirus neutralization came to 0.005 µg/mL in [18], 0.008 µg/mL in experiment [21], 0.0071 µg/mL in [9] and 0.0328 µg/mL in experiment [10]. In addition, the IC50 (µg/mL) neutralization in [19] came to 0.012 µg/mL; in experiment [20], 0.011 µg/mL; in experiment [23], 13.3 µg/mL; in experiment [25] it was 0.01 µg/mL. Further, the IC50 stood at 4.95 µg/mL in [7] and 0.307 µg/mL in experiment [22]. Further, the IC50 (ug/ml), neutralizing activity is 0.0071 µg/mL in experiment [9] and 0.0327 µg/mL in experiment [10]. Further, the figures for the IC80, pseudovirus neutralization in [9] and in experiment [10] were 0.0281 µg/mL and 0.145 µg/mL, respectively. Further, the results for the IC90 (pseudovirus neutralization) in experiment [9] and in experiment [10] were 0.0625 µg/mL and 0.339 µg/mL, respectively. Moreover, the IC95, pseudovirus neutralization in experiment [9] amounted to 0.131 µg/mL; in [10] it was 0.726 µg/mL.

Take 4877_D15 (PGT-122) (antibody): the results for the IC50 (µg/mL), pseudovirus neutralization in experiment [17] and in experiment [24] were greater than 50 µg/mL and 0.005 µg/mL, respectively. In addition, the values for the IC50, pseudovirus neutralization in [18] and in experiment [21] were 0.009 µg/mL and 0.021 µg/mL, respectively. In addition, the IC50 (µg/mL) neutralization in experiment [19] amounted to 0.027 µg/mL; in experiment [20] it was 0.028 µg/mL; in experiment [23], 8.69 µg/mL; in experiment [25] it was 0.015 µg/mL. The IC50 in experiment [7] is 4.81 µg/mL; in experiment [22], 2.3 µg/mL. The IC50 (ug/ml), neutralizing activity in experiment [9] is 0.0138 µg/mL; in experiment [10] it was 0.0851 µg/mL.

Consider 5114_A19 (PGT-128) (antibody), for which the IC50 is 0.029 µg/mL in experiment [26]; greater than 50 µg/mL in experiment [28]; 0.007 µg/mL in experiment [8]; 0.011 µg/mL in experiment [13]; 0.018 µg/mL in experiment [33]; 0.003 µg/mL in [35]. The IC50, single-round pseudovirus neutralization in experiment [27] is 0.009 µg/mL; in [29], 0.069 µg/mL; in experiment [31], greater than 50 µg/mL; in experiment [34], 0.005 µg/mL. In addition, the IC50, pseudovirus neutralization in experiment [30] came out at 0.023 µg/mL; in experiment [32] it was 12.7 µg/mL; in experiment [36] it was 0.007 µg/mL; in experiment [37], 0.027 µg/mL.

As to 5123_A06 (PGT-125) (antibody), the IC50 (µg/mL), pseudovirus neutralization in [17] came to 0.04 µg/mL; in [24] it was 0.118 µg/mL. Besides, the IC50, pseudovirus neutralization in experiment [18] was 0.004 µg/mL; in experiment [21], 0.016 µg/mL. In addition, the IC50 (µg/mL) neutralization in experiment [19] was 2.09 µg/mL; in experiment [20], greater than 50 µg/mL; in [23] it was 42.5 µg/mL; in experiment [25], 2.36 µg/mL. Further, the IC50 in [7] and in experiment [22] was greater than 50 µg/mL throughout. For the same substance, the IC50 (ug/ml), neutralizing activity amounted to 0.0137 µg/mL in experiment [9] and 0.0359 µg/mL in experiment [10]. The neutralization IC50 is 0.0137 µg/mL in experiment [9] and 0.0359 µg/mL in experiment [10]. Also, the figures for the neutralization IC80 in experiment [9] and in [10] were 0.0494 µg/mL and 0.133 µg/mL, respectively. Also, the neutralization IC90 in experiment [9] worked out at 0.106 µg/mL; in [10], 0.288 µg/mL. The neutralization IC95 turned out to be 0.216 µg/mL in [9] and 0.597 µg/mL in experiment [10].

Regarding 5141_B17 (PGT-126) (antibody), the IC50 (µg/mL), pseudovirus neutralization is greater than 50 µg/mL in experiment [17] and 0.039 µg/mL in experiment [24]. The values for the IC50, pseudovirus neutralization in experiment [18] and in experiment [21] were 0.003 µg/mL and 0.015 µg/mL, respectively. Also, the IC50 (µg/mL) neutralization in experiment [19] came out at 0.298 µg/mL; in experiment [20] it was 2.12 µg/mL; in experiment [23], 0.786 µg/mL; in [25], 0.17 µg/mL. Further, the IC50 is 0.0163 µg/mL in [21], greater than 50 µg/mL in [7] and greater than 50 µg/mL in experiment [22]. Moreover, in [21], the IC80 was 0.0457 µg/mL. In experiment [21], this substance returned an IC90 of 0.0846 µg/mL. In [21], this substance had an IC95 of 0.152 µg/mL. The IC50 (ug/ml), neutralizing activity in [9] is 0.0194 µg/mL; in experiment [10], 0.0249 µg/mL.

As to 5145_B14 (PGT-127) (antibody), the results for the IC50 (µg/mL), pseudovirus neutralization in experiment [17] and in experiment [24] were greater than 50 µg/mL and 0.6 µg/mL, respectively. Besides, the IC50, pseudovirus neutralization in experiment [18] was 0.019 µg/mL; in experiment [21], 0.059 µg/mL. In addition, the IC50 (µg/mL) neutralization is 0.57 µg/mL in [19], greater than 50 µg/mL in experiment [20], greater than 50 µg/mL in experiment [23] and 3.4 µg/mL in experiment [25]. Moreover, the IC50 in experiment [7] and in experiment [22] was greater than 50 µg/mL in each case.

With PGT-121 (antibody), in experiment [35], the Primary Neutralization Index (B cell culture well 4838 L06) was found to be 3.2 and the Primary Neutralization Index (B cell culture well 4873 E03) was 2.2.

In the case of PGV04 (antibody), the IC50 (µg/mL), pseudovirus neutralization in experiment [7] was 0.268 µg/mL; in experiment [8] it was 0.025 µg/mL; in experiment [13], 0.322 µg/mL; in [33] it was 0.44 µg/mL.

Turning to VRC01 (antibody), the neutralization IC50 in experiment [26] stood at 1.19 µg/mL; in experiment [28] it was 0.1 µg/mL; in experiment [35], 0.164 µg/mL. Besides, the IC50, pseudovirus neutralization is 0.517 µg/mL in experiment [7], 0.075 µg/mL in experiment [8] and 0.039 µg/mL in [22].

Source of the values: patent US20200024330A1.
